{"source": "paper PMC7002446", "molecular_target": "transferrin receptor 1 (TfR1) (human (endogenous in gastric cancer patient tissue and human GC cell lines)) (UniProt P02786)", "sequence (P02786 whole entry)": "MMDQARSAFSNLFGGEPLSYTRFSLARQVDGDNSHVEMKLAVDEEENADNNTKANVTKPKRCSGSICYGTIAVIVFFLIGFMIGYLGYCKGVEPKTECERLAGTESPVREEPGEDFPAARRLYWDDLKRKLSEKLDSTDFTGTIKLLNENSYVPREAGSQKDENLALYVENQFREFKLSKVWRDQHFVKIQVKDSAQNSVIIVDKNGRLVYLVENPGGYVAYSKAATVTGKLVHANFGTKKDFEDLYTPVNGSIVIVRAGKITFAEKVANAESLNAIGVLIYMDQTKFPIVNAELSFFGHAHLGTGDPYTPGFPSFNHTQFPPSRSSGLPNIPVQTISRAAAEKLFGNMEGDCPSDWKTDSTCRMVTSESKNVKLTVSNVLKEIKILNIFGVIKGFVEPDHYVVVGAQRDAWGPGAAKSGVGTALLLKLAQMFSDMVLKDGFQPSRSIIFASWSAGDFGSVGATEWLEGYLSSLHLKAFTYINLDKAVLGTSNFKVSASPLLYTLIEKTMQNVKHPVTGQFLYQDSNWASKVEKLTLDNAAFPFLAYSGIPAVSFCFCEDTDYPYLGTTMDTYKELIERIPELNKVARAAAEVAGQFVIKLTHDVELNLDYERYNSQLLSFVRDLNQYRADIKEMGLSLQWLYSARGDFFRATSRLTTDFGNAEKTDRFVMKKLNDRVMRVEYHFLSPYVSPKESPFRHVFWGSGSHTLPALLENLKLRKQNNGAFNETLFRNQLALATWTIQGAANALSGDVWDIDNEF"}
{"substance": "doxorubicin-loaded HFn nanocarrier (HFn-Dox) (from UniProt P02794 1-183) (natural protein)", "values": [{"measurement": "tumor growth inhibition (TGI) rate in TfR1-positive GC-PDX mouse models treated with HFn-Dox (against 41.6% for free Dox)", "value": 91.1, "unit": "%"}]}
